Consider 2 molecules from publication PMC3950514 (mBio, 2014).

The target in experiment [1] is C. neoformans calmodulin (Cam1) (C. neoformans). Briefly: pull-down.
In experiment [2] the target is CnCam1 with human calcineurin (Cryptococcus neoformans, UniProt J9VTH9). Nature of the experiment: malachite green phosphate release from RII phosphopeptide by human calcineurin. The experiment is classed as biochemical.

Chain of green fluorescent protein (GFP)-tagged C. neoformans calcineurin (Cna1-GFP) (O42773 whole entry): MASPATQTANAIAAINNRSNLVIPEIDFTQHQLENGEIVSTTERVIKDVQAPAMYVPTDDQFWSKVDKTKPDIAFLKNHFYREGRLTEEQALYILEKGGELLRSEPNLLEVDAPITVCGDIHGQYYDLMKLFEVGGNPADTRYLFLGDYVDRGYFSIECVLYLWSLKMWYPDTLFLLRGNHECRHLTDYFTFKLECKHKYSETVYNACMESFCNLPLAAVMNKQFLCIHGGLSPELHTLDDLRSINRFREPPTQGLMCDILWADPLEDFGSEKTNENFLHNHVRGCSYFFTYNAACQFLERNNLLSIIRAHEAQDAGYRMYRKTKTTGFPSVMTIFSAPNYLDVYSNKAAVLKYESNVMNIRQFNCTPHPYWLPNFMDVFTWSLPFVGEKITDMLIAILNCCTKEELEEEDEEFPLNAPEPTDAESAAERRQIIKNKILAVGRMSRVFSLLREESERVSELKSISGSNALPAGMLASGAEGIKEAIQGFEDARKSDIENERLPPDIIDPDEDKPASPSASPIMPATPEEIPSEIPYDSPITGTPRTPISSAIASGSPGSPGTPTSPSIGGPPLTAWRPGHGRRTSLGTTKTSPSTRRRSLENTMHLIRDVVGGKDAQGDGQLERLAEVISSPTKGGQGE

“green fluorescent protein (GFP)-tagged C. neoformans calcineurin (Cna1-GFP) (from UniProt O42773 1-639) (enzyme)” yielded a percent reduction of the bound amount with toremifene (20 µg/ml) against DMSO in experiment [1] of 45%. The IC50 is the point on the concentration scale where inhibition reaches its midpoint. As to `CN(C)CCOc1ccc(/C(=C(/CCCl)c2ccccc2)c2ccccc2)cc1` [TOR, toremifene], the IC50 in experiment [2] was 61.6 µM.
